Key:
[1] = biological target: 猪溶素 (Suilysin, SLY), recombinant rSLY (猪链球菌 (Streptococcus suis))
[2] = biological target: 肺炎链球菌溶血素 (Pneumolysin O, PLY), recombinant rPLY (肺炎链球菌 (Streptococcus pneumoniae))
[3] = biological target: 李斯特菌溶血素 (Listeriolysin O, LLO), recombinant rLLO (单增李斯特菌 (Listeria monocytogenes))
rLLO D4 = biological target: T1, rLLO D4 (单增李斯特菌 (Listeria monocytogenes)); test: Western blot
T1 construct: also called LLO D4结构域

rSLY D4 = biological target: T2, rSLY D4 (猪链球菌 (Streptococcus suis)); test: Western blot
T2 construct: also called SLY D4结构域
T2 chain: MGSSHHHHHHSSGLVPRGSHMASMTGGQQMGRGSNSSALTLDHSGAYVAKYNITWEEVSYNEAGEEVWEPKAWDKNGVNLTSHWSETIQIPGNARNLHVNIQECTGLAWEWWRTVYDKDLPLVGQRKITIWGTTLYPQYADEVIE

rLLO D1-3 = biological target: T3, rLLO D1-3 (单增李斯特菌 (Listeria monocytogenes)); test: Western blot
T3 construct: also called LLO D1-3结构域
T3 chain: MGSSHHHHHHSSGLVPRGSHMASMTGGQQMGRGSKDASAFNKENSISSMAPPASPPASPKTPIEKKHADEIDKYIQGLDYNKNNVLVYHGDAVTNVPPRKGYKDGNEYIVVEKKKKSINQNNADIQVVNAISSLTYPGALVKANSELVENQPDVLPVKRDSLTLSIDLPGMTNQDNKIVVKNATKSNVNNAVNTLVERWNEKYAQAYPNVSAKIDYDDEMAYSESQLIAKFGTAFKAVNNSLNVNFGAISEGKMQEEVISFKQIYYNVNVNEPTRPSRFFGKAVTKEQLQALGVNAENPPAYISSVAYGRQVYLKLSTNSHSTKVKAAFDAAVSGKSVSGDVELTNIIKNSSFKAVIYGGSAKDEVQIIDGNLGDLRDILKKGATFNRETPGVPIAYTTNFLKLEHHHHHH

B1: 抗胆固醇依赖性细胞溶素的抗体 (antibody, V domains shown)
VH: QVQLQQSGPGLVKPSQTLSLTCAISGDSVSSNSVAWNWIRQSPSRGLEWLGRTYYRSKWYNDYAVSVKSRITINPDTSKNQFSLQLNSVTPEDTAVYYCVRVDNSGWGNWGQGTLVTVSS
VL: EIVMTQSPLSSPVTLGQPASISCRSSQSLVHRDGNTYLSWLRQRPGQPPRLLIYKISNRFSGVPDRFSGSGAGTDFTLKISRVEAEDVGIYYCMQATQFPTFGGGTKVEIKR
notes: also called 胆固醇依赖性细胞溶素抗体; 抗胆固醇依赖性细胞溶素抗体
Question: Which EC50 [1] does the source give for B1 here?
Answer: Its EC50 is 0.00018 µM.

Question: And the EC50 [2]?
Answer: The EC50 was 49.9 µM.

Question: And the EC50 [3]?
Answer: Its EC50 is 44.9 µM.

Question: Does B1 bind (rLLO D4)?
Answer: Result: no binding (tested: 抗体1:1000稀释)

Question: Does B1 bind (rSLY D4)?
Answer: Result: no binding (tested: 抗体1:1000稀释)

Question: Does B1 bind (rLLO D1-3)?
Answer: Result: binds
